± gives the standard error. Fewer inactive variants are shown than the library holds.
B1: glmS ribozyme (parent)
chain: AUAAAAGCGCCAGAACUACAGAAAUGUAGUUGACGAGGAGGAGGUUUAUCGAAUUUUCGGCGGAUGCCUCCAAA

How the values were obtained:
Conditions in all cases: with glucosamine-6-phosphate
glucosamine-6-phosphate [1] = variants of: B1; test: self-cleavage kobs at 160 uM GlcN6P; higher = faster cleavage; RNA array
Summary of the method: (§1)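 The measurements used barcoded ribozyme variants on sequenced MiSeq chips, transcribed in situ by E. coli RNA polymerase and tracked at 37 °C with a hybridised Cy3 probe. Glucosamine-6-phosphate, 40 μM to 10 mM in HEPES/KCl/Mg(OAc)2 buffer, was flowed in while tiles were imaged over ~14 h. Baseline-normalised signals, also normalised to non-cleaving reference variants, gave per-tile medians that were fit to one- or two-exponential decays for kobs. kcat and KM resulted from weighted Michaelis–Menten fits across concentrations.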

glucosamine-6-phosphate [2] = variants of: B1; test: self-cleavage kobs at 2500 uM GlcN6P; higher = faster cleavage; RNA array
Summary of the method: as §1

glucosamine-6-phosphate [3] = variants of: B1; test: self-cleavage kobs at 640 uM GlcN6P; higher = faster cleavage; RNA array
Summary of the method: as §1

glucosamine-6-phosphate [4] = variants of: B1; test: self-cleavage kobs at 10000 uM GlcN6P; higher = faster cleavage; RNA array
Summary of the method: as §1

| Variant | self-cleavage kobs at 160 uM GlcN6P (glucosamine-6-phosphate [1]) | self-cleavage kobs at 2500 uM GlcN6P (glucosamine-6-phosphate [2]) | self-cleavage kobs at 640 uM GlcN6P (glucosamine-6-phosphate [3]) | self-cleavage kobs at 10000 uM GlcN6P (glucosamine-6-phosphate [4]) |
| --- | --- | --- | --- | --- |
| G7A G13A G37C U46G | < 1e-05 s⁻¹ | < 1e-05 s⁻¹ |  |  |
| G35C A53G | < 1e-05 s⁻¹ | < 1e-05 s⁻¹ | < 1e-05 s⁻¹ | < 1e-05 s⁻¹ |
| C8A A53U U55G | < 1e-05 s⁻¹ |  | < 1e-05 s⁻¹ |  |
| G7U G40C G44U U47C G51U | < 1e-05 s⁻¹ | < 1e-05 s⁻¹ |  |  |
| A6U C11A G13U | < 1e-05 s⁻¹ |  |  |  |
| C8U G37C A39G | < 1e-05 s⁻¹ | < 1e-05 s⁻¹ | < 1e-05 s⁻¹ | < 1e-05 s⁻¹ |
| C10A U30A | < 1e-05 s⁻¹ | < 1e-05 s⁻¹ | < 1e-05 s⁻¹ | < 1e-05 s⁻¹ |
| G35U G41U G43A | < 1e-05 s⁻¹ | < 1e-05 s⁻¹ | < 1e-05 s⁻¹ |  |
| G35A G38A A39G G63C C67U | < 1e-05 s⁻¹ |  |  |  |
| A15C A33U A36C A48C | < 1e-05 s⁻¹ | < 1e-05 s⁻¹ | < 1e-05 s⁻¹ |  |
| A33G G35A A36C A64G | < 1e-05 s⁻¹ |  |  |  |
| C16A A52G G63U G66U | < 1e-05 s⁻¹ |  | < 1e-05 s⁻¹ |  |
| A12U A14C C71U | 0.000143 ± 4.4e-05 s⁻¹ | 0.00169 ± 0.00033 s⁻¹ |  |  |
| G44U G59A G60A | < 1e-05 s⁻¹ | < 1e-05 s⁻¹ | < 1e-05 s⁻¹ |  |
| A15U A33G U47G U54G C67U C71A | 0.000235 ± 8.9e-05 s⁻¹ |  | 0.000303 ± 8.2e-05 s⁻¹ |  |
| G7A C50A G51A | < 1e-05 s⁻¹ | < 1e-05 s⁻¹ | < 1e-05 s⁻¹ |  |
| G9A C61G | < 1e-05 s⁻¹ |  | < 1e-05 s⁻¹ |  |
| A14C A36C A52U | < 1e-05 s⁻¹ |  | < 1e-05 s⁻¹ | < 1e-05 s⁻¹ |
| A12C U56C | 6.31e-05 ± 1.4e-05 s⁻¹ | 0.00111 ± 0.00017 s⁻¹ | 0.000455 ± 8.2e-05 s⁻¹ | 0.00253 ± 0.00077 s⁻¹ |
| C8A G13C U30C G41U | < 1e-05 s⁻¹ | < 1e-05 s⁻¹ |  | < 1e-05 s⁻¹ |
| G32C G35A | < 1e-05 s⁻¹ | < 1e-05 s⁻¹ | < 1e-05 s⁻¹ | < 1e-05 s⁻¹ |
| G9U G13C G40A G44U G63U | < 1e-05 s⁻¹ | < 1e-05 s⁻¹ | < 1e-05 s⁻¹ |  |
| A14G A39C G40U U46A A53C | < 1e-05 s⁻¹ | < 1e-05 s⁻¹ |  |  |
| U30G G38C | < 1e-05 s⁻¹ | < 1e-05 s⁻¹ | < 1e-05 s⁻¹ |  |
| C16G G35C A39G G60U C61U C68U C71A | < 1e-05 s⁻¹ | < 1e-05 s⁻¹ | < 1e-05 s⁻¹ |  |

| Variant | self-cleavage kobs at 160 uM GlcN6P (glucosamine-6-phosphate [1]) | self-cleavage kobs at 2500 uM GlcN6P (glucosamine-6-phosphate [2]) | self-cleavage kobs at 640 uM GlcN6P (glucosamine-6-phosphate [3]) | self-cleavage kobs at 10000 uM GlcN6P (glucosamine-6-phosphate [4]) |
| --- | --- | --- | --- | --- |
| U49G G51C C61U G63A | < 1e-05 s⁻¹ |  |  |  |
| G41A C67A | < 1e-05 s⁻¹ |  |  | 4.21e-05 ± 8.7e-06 s⁻¹ |
| A6G C10G U46G | < 1e-05 s⁻¹ | < 1e-05 s⁻¹ | < 1e-05 s⁻¹ |  |
| A15G U45A U56G A64C C70A | < 1e-05 s⁻¹ | < 1e-05 s⁻¹ | < 1e-05 s⁻¹ |  |
| G7C A14C U46G | < 1e-05 s⁻¹ | < 1e-05 s⁻¹ | < 1e-05 s⁻¹ |  |
| G9A U30G G37U | < 1e-05 s⁻¹ |  |  |  |
| C10A G32C G38C | < 1e-05 s⁻¹ | < 1e-05 s⁻¹ |  |  |
| C8A G59A | < 1e-05 s⁻¹ | < 1e-05 s⁻¹ | < 1e-05 s⁻¹ | < 1e-05 s⁻¹ |
| C10U A39U C67G | < 1e-05 s⁻¹ |  | < 1e-05 s⁻¹ |  |
| G13A G40C C70G | < 1e-05 s⁻¹ | < 1e-05 s⁻¹ | < 1e-05 s⁻¹ | < 1e-05 s⁻¹ |
| A6G C67U C71U | < 1e-05 s⁻¹ |  |  |  |
| C10A G35C C67U | < 1e-05 s⁻¹ | < 1e-05 s⁻¹ |  |  |
| U56A U69G | 5.23e-05 ± 1e-05 s⁻¹ | 0.000127 ± 4.2e-05 s⁻¹ | 5.7e-05 ± 2e-05 s⁻¹ | 4.58e-05 ± 8.9e-06 s⁻¹ |
| G41U U65A C68G | < 1e-05 s⁻¹ | < 1e-05 s⁻¹ |  |  |
| G7C C68U | < 1e-05 s⁻¹ | < 1e-05 s⁻¹ | < 1e-05 s⁻¹ | < 1e-05 s⁻¹ |
| C34U U47A A48G U69G | < 1e-05 s⁻¹ |  |  |  |
| A28G C70A | 0.000126 ± 3.7e-05 s⁻¹ | 0.000497 ± 0.00012 s⁻¹ | 6.33e-05 ± 2.1e-05 s⁻¹ |  |
| G37C G51U | < 1e-05 s⁻¹ |  |  | < 1e-05 s⁻¹ |
| U45C A48U U65G | < 1e-05 s⁻¹ |  |  |  |
| G37C G43C | < 1e-05 s⁻¹ | < 1e-05 s⁻¹ | < 1e-05 s⁻¹ | < 1e-05 s⁻¹ |
| U31G G44U G51U | < 1e-05 s⁻¹ |  |  |  |
| G41C G63A | < 1e-05 s⁻¹ |  | < 1e-05 s⁻¹ |  |
| G63U A64C | < 1e-05 s⁻¹ | < 1e-05 s⁻¹ | < 1e-05 s⁻¹ | < 1e-05 s⁻¹ |
| A6U A14G A15U U31G U55G | < 1e-05 s⁻¹ | < 1e-05 s⁻¹ | < 1e-05 s⁻¹ |  |

Reference: the supplement of paper PMC7125110
